Reference: US8124583B2, “Composition and method for self-assembly and mineralization of peptide-amphiphiles” (Northwestern University, priority 2002, dated 2012)
Square brackets hold non-standard residues; d marks the D form. * marks the point of attachment. Palmitoyl = CCCCCCCCCCCCCCCC(=O)*; pS = N[C@@H](COP(=O)(O)O)C(=O)O; C16 = 16 carbon alkyl tail

Experiments:
Assay type in all cases: physicochemical
[1] = Solubility in water; conditions: for concentration at which the molecules dissolve: pH 7.5-adjusted water
Protocol: (§1) The two molecules dissolve in pH 7.5-adjusted water at a concentration of about 10 mg/mL. Molecule 1 has a charge of (−1) and molecule 2 has a charge of (+2) under these conditions.
Cleavage and deprotection of the molecules was accomplished with a mixture of trifluoroacetic acid (TFA) and triisopropylsilane (TIS) in a ratio of 95:5 for three hours at room temperature. The cleavage mixture and two subsequent TFA washings were filtered into a round bottom flask. The solution was roto-evaporated to a thick viscous solution. This solution was triturated with cold diethylether. The white precipitate was collected by filtration, washed with copious cold ether and dried under vacuum. The molecules were then dissolved in water at a concentration of 10 mg/mL, adjusting the pH to improve solubility. The solution was initially acidic in both cases. In the case of molecule 1, the pH was raised to about pH 8 with 2M and 100 mM KOH, then back-titrated to pH 7.

[2] = Self assembly/gelation with monovalent salts (KCl, NaCl); conditions: mixing with 200 mM KCl or NaCl solutions
Protocol: as §1
In all cases self assembled gels comprised of the nanofibers were formed similar to those described elsewhere (Hartgerink et al., 2001; Hartgerink et al., 2002). In contrast no self assembly or gel formation was observed when other negatively or positively charged peptide-amphiphiles were exposed to the NaCl or the KCl at concentrations up to 6 M. The fact that molecules 1 and 2 assemble in the presence of the monovalent salts sets them apart from the other molecules studied. […] The reason for this difference may be in the structure of these molecules. Both these molecules contain IKVAV (SEQ ID NO: 1) sequence at the c-terminus of the peptide segment. […]
Transmission Electron Micrographs of samples of the supramolecular compositions from the multi-dimensional peptide-amphiphiles, Molecule 1 and Molecule 2, were prepared as follows. A small sample of the supramolecular composition gel, prepared in bulk as described above, was smeared onto a holey carbon coated TEM grid (Quantifoil). […]

[3] = Gelation of charged peptide amphiphile solutions with ions or with each other; conditions: positive PA in Ca+2 (reaction 4); negative PA in PO4−3 (reaction 5)
Description: In another example of this invention, the composition and method consists of using highly charged peptide amphiphile species (16 carbon alkyl tail with a sequence like CCCCGGGSS(P)DS(P)D (SEQ ID NO: 14) with a −7 charge, for example) dissolved in a solution of negative ions (phosphate ions with a −3 charge), call this solution X. A second solution with a positively-charged peptide amphiphile species (such as 16 carbon alkyl tail with a sequence like ACAAGGGKRGDS (SEQ ID NO: 21)—an amine terminated PA at +1 charge) in a solution with positively-charged ions, such as Ca^2+; call this solution Y. In both solutions the peptide heads are charged and the structural element of the peptide can be varied, to give different charged peptide-amphiphile species, depending on the application.
The positive and negative peptide amphiphiles alone (no added salt ions) will gel each other, reaction 1, when mixed in the right ionic ratios (1:7, (−):(+) in this instance), forming mixed peptide amphiphile nanofibers, theoretically composed of 7 positive peptide amphiphiles for every 1 of the negative peptide amphiphiles. The positive peptide amphiphile solution Y may be gelled, reaction 2, with the negative ions (for example a solution containing phosphate ion PO4^−3). […] Mixing the positive and negative ions (calcium cation with phosphate anion) will make calcium phosphate mineral (reaction 6). […]

[4] = Self assembly with CaCl2 and hydroxyapatite mineralization of nanofiber gel (TEM, electron diffraction)
Protocol: A liquid composition for the self assembly of (1) and mineralization of hydroxyapatite was prepared by dissolving […] NaH2PO4 (Aldrich) into 200 microliters of (1) at a concentration of 10 mg/ml in water. The pH of the solution was adjusted to 7.7.
The liquid composition containing (1) and NaH2PO4 was mixed with 40 micromoles of CaCl2 (Aldrich).
Samples of the gel after 2 hours, 1 day, and 5 days were mounted on carbon-coated TEM grids. TEM studies of the 1 and 5 day samples show a multi-crystalline material composed of plate like crystals˜5 nm thick and 50 to 100 nm long. The plate like crystals were similar to those observed in the mineralization experiments on the pre-assembled template.

## C15H31C(O)-CCCCGGGEIKVAV-COOH (Palmitoyl-CCCCGGGEIKVAV-OH; cysteine pairing not given here) [PA 22]
[1]
  concentration at which the molecules dissolve: about 10 mg/mL
[2]
  gel formation with monovalent salt: self-supporting gel forms

## CCCCGGGSS(P)DS(P)D (C16-CCCCGGGS[pS]D[pS]D-OH; cysteine pairing not given here; also: C16 alkyl tail)
[3]
  gelation in ions of the same charge sign: does not gel

## C15H31C(O)-CCCCGGGEIKVAV-NH2 (Palmitoyl-CCCCGGGEIKVAV-NH2; cysteine pairing not given here) [Molecule 2]
[1]
  concentration at which the molecules dissolve: about 10 mg/mL
[1]; water, 10 mg/mL, pH adjusted with KOH
  pH dependence of solubility: most soluble at low pH
[2]
  gel formation with monovalent salt: self-supporting gel forms

## C15H31C(O)-CCCCGGGS(P)RGD-COOH (Palmitoyl-CCCCGGG[pS]RGD-OH; cysteine pairing not given here) [PA 18]
[4]; addition of CaCl2 to 10 mg/ml peptide-amphiphile preloaded with NaH2PO4, pH 7.7
  self assembled gel formation: formed immediately
[4]; after CaCl2 addition
  time until gel turned a white color (mineralization started): about 2 hours

## ACAAGGGKRGDS [positively-charged peptide amphiphile, 16 carbon alkyl tail, amine terminated PA]
[3]
  gelation in ions of the same charge sign: does not gel
